Source: US20080233097A1, “Phosphorylation Site Of Mitogen-Activated Protein Kinases, Modified Proteins And Applications” (UNIVERSIDAD AUTONOMA DE MADRID, priority 2005, published 2008)
Values joined by “and” are separate entries in the source; they are usually repeats but may differ in a detail not shown here. Identical values can stand only once.

Assays:
3T3-L1 cells [1] = experiment: adipocyte differentiation of 3T3-L1 (Oil Red staining, adipocyte count); format: cell-based
Source text: 3T3L1 lines stably transfected with pCDNA3-GRK2 and pCDNA3-GRK2K220R were made. GRK2 (anti-GRK2) expression controls obtained in cell lines, compared to 3T3L1 levels, are included. The cells were subjected to a standard differentiation treatment and on day 15 of the latter, the cells were fixed with formalin and stained with Oil Red, a lipophilic coloring which binds to the fats accumulated by the adipocytes. The cells with adipocytic phenotype (in red) were counted under microscope in a total of 25 fields. Representative photographs of two independent experiments are shown in duplicate. A photo of the 3T3L1 cells, free of stimulation with insulin during the differentiation process (control), is also included. The graph reflects the adipocyte count (±SEM) in these experiments.
The cell culture was carried out with 10% DMEM medium of NCS serum. However, the entire differentiation process which is described below must be performed in depleted AXC serum (ion exchange resin) by means of successive adsorptions of fetal calf serum on an anion exchange resin and on active carbon. AXC serum was provided by the kitchen service of the Instituto of Investigaciones Biomédicas (Biomedical Research Institute). The cells are grown until their confluence and are plated (5×10^5 in P-100) in DMEM-10% AXC medium, supplemented with 4 μM of biotin (Sigma). The following day, the medium is replaced with fresh medium. The cells are grown another three days, until confluence is reached again, that day is called day “0”. On day 0 of differentiation, the cells are cultured in a medium containing: 0.5 μM dexamethasone (Sigma), 0.5 mM 3-isobutyl-1-methylxanthine (IMBX, of Sigma) and 1 μM insulin (Sigma) and in which they will remain for another three days. […] From day 6 to day 15, the adipogenesis was analyzed by staining with Oil Red, a red coloring of lipophilic constitution which binds to the drops of fat accumulated by the adipocytes in their cytoplasm. […] The cells are counted in a total of 25 fields per each experimental plate.

3T3-L1 cells [2] = details: prior demonstration of p38 involvement; cited from earlier work
GRK2 = target: T1, GRK2 (Bos taurus, UniProt P21146); experiment: GRK2 kinase activity in vitro (casein substrate); format: biochemical; details: 0.5 μM
T1 construct: made in house; host or cells: Sf9 cells (baculovirus)
T1 sequence (P21146 1-689): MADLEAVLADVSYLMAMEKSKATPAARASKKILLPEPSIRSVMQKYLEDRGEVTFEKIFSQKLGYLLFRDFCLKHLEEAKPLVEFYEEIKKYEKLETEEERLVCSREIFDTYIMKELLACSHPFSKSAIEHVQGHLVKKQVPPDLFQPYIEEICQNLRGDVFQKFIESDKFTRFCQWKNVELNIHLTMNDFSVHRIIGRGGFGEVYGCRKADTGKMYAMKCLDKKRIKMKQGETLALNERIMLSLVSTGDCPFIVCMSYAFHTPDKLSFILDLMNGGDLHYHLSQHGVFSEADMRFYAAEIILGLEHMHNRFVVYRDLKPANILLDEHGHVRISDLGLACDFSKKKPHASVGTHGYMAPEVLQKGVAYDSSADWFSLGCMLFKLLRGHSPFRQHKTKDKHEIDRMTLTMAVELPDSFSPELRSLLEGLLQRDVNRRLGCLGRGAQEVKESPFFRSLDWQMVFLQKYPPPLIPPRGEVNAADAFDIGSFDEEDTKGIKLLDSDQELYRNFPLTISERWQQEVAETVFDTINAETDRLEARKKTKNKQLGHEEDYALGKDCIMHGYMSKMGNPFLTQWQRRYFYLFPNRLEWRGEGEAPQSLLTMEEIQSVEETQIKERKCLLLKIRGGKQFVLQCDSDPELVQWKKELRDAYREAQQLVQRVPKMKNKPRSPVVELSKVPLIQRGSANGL

p38 (GST-p38) = target: T2, p38 (GST-p38) (Mus musculus, UniProt P47811); experiment: p38 phosphorylation by GRK2 in vitro (kinetic characterization); format: biochemical
T2 construct: with whole p38α in the same conditions as described in section A; made in house; host or cells: E. coli (GST-p38); Sf9 cells with baculovirus (GRK2)
T2 sequence (P47811 whole entry): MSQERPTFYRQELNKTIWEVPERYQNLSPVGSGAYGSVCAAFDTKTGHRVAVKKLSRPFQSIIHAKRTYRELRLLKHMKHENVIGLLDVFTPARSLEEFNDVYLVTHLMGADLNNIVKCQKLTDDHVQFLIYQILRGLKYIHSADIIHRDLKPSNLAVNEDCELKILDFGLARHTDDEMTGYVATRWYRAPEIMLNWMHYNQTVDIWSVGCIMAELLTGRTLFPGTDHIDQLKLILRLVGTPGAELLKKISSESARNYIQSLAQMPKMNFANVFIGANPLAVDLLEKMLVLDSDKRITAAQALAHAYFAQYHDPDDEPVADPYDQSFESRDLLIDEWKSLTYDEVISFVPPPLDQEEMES
Description: Normally, the phosphorylation reactions are left to take place for 30 minutes at 30° C. In the case of two-dimensional electrophoresis or of the samples intended for proteomic sequencing, the reaction extends to 1 or 2 hours.
The Michaelis-Menten behaviour of the kinases was assumed for calculating the kinetic constants of the enzymatic reactions. The graphs were made with the “Kaleidagraph” program, provided with an algorithm capable of deducing the kinetic parameters: Michaelis-Menten constant (Km) and maximum speed (Smax=So (nmol of PO4^3-incorporated. mg of enzyme^−1minute^−1)

β-tubulins = details: depending on the subtypes; cited from earlier work
Flag-p38α = target: T3, Flag-p38α (Mus musculus, UniProt P47811); experiment: […] peptide phosphorylation by immunoprecipitated Flag-p38; format: biochemical; details: HEK 293 cells transfected with Flag-p38α, MKK6CAM and 1 or 2 μg pCDNA3-GRK2
T3 construct: expressed in transfected cells; host or cells: HEK 293 cells, co-transfected with pCDNA3-MKK6CAM and with or without pCDNA3-GRK2
T3 sequence (P47811 whole entry): as above
Description: FIG. 4A: HEK 293 cells, seeded in p60, were transiently transfected with 0.5 μg of pCDNA3-Flag-p38α, 0.5 μg of pCDNA3-MKK6CAM(or 0.5 μg of empty pCDNA3 in the control, CTRL), and with 1 or 2 μg of the pCDNA3-GRK2 (+) vector, carrying out each point in duplicate. The controls were carried out in a parallel way, substituting the pCDNA3-GRK2 μg with pCEFL-EGFP (−). The total DNA amount was completed with empty pCDNA3. After 48 hours, the cells were lysed, lysate aliquots were taken and Flag-p38 was immunoprecipitated from them. […] FIG. 4B: The immunoprecipitates were washed three times with 15 ml of M2 buffer and two times with 15 ml of phosphorylation buffer without ATP (15 mM NaF, 25 mM Hepes pH 7.5 and 10 mM magnesium acetate). In the last washing step, the agarose-immune complexes were resuspended in 1 ml of buffer and 10% of each point was separated to control the immunoprecipitation of Flag-p38 (panel inserted in the graph of section B). Kinase-assays were carried out with immunoprecipitated Flag-p38, using [sequence] peptide (initially provided by CalbioChem and subsequently synthesized by the Servicio de Química de Proteínas (Protein Chemistry Service) of the CBMSO) as a substrate. […] ATP and 2 mM of the peptide substrate. […] They were left to dry, were abundantly washed with 75 mM phosphoric acid and the radioactivity incorporated by the adsorbed peptide was quantified by Cerenkov. […]

sinucleins = details: depending on the subtypes; cited from earlier work
Flag-p38 = experiment: GRK2 overexpression: p38 activation by MKK6CAM in HEK 293 cells; format: cell-based, human; details: increasing doses of pCDNA3-GRK2 (0 to 1 μg)
Description: FIG. 3A: HEK 293 cells, normally seeded in multiwell plates with 6 or 12 wells (M6 or M12), were transiently transfected with pCDNA3-Flag-p38α, pCDNA3-MKK6CAM, and with increasing amounts of the pCDNA3-GRK2 vector. In this experiment, M6 plates were used and the DNA amounts introduced were: 100 ng of Flag-p38, 100 ng of MKK6CAM, and 0 to 1 μg of GRK2. In all points, the total amount of DNA was completed with pCEFL-EGFP and with empty pCDNA3 instead of pCDNA3-MKK6CAM, in the case of the control (CTRL). After 48 hours, the cells were harvested by lysing them in M2 buffer. […] The p38 activation state was evaluated with anti-phospho-p38, of Cell Signaling, and after giving off the antibodies of the first immunodetection, it was detected with total anti-p38, of the same company. […] The Flag-p38 activation state was determined in the same way as in A. Furthermore, the correct MKK6CAM expression was assured with the anti-MKK6/SKK3 antibody of Upstate Biotechnology. […]
The HE 293 cells, generally subjected to starvation (medium without serum) of a variable duration: 2 hours in the case of p38 and all night in the case of ERK, were stimulated and, after processing the lysate cells, the immunodetection of the phosphoproteins was carried out with the phospho-specific antibodies of the activation segments of both proteins. […] The quantification of the bands was carried out in a laser densitometer. […]

[3] = test system: phosducin and the protein similar to phosducin (PhD and PhLP); details: cited from earlier work

Molecule | effect on adipogenesis (3T3-L1 cells [1]; 10 μM, insulin-induced differentiation) | effect on differentiation into adipocytes (3T3-L1 cells [2]) | effect on kinase activity of GRK2 (GRK2) | maximum speed (Smax) (p38 (GST-p38); GRK2 25 nM, p38 12.5 to 400 nM, 15 minutes) | Km (p38 (GST-p38); GRK2 25 nM, p38 12.5 to 400 nM, 15 minutes, 30° C., read-out: Michaelis-Menten constant (Km)) | stoichiometry of phosphorylation (p38 (GST-p38); at least three quantifications by Cerenkov) | average time for reaching 50% of the maximum phosphorylation (p38 (GST-p38); time course 0 to 90 minutes) [min] | Km (β-tubulins) [µM] | catalytic activity of immunoprecipitated p38 on APR peptide (Flag-p38α) | acquisition of the adipocytic morphology mediated by insulin (3T3-L1 cells [1]; 3T3L1 lines stably transfected, day 15) | Km (sinucleins) [µM] | p38 activation dependent on MKK6CAM (Flag-p38) | Km [3] [µM]
C[S+]([O-])c1ccc(-c2nc(-c3ccncc3)c(-c3ccc(F)cc3)[nH]2)cc1 (stereo not shown) [SB203580] | reverses the entire adipogenesis | blocked | does not affect the kinase activity of GRK2 |  |  |  |  |  |  |  |  |  | 
GRK2: G protein-coupled receptor kinase 2; recombinant, purified by the Baculovirus system; phosphorylates Thr123 of p38 |  |  |  | 0.9 nmol of PO4^3-incorporated per mg GRK2^−1 minute^−1 | 0.0796 µM and 0.08 µM | 0.4-0.8 mol Pi/mol p38 | 15 | 1 to 2 | dimmed | inhibits the acquisition of the adipocytic morphology mediated by insulin | 1 to 2 | decreased more as more amounts of GRK2 were expressed | 0.04 to 0.1
